Molecular target: 32D c13 cells stably expressing the human Fuc-TIV (myeloid) enzyme
Experiment: adhesion of 51Cr-loaded cells to plate-captured selectin/IgM fusion protein

- fold binding density relative to untransfected cells: 10 fold
Substance: human E-selectin/IgM fusion protein (from UniProt P16581)

Source: patent US5858752
